From patent US12428627B2, “Mutant p-hydroxyphenylpyruvate dioxygenase, and coding nucleic acid and use thereof” (Qingdao Kingagroot Chemical Compound Co., Ltd., priority 2018, dated 2025)

Columns and labels:
[1] = test system: Huaidao No. 5 rice seedlings; test: Gene-edited rice seedlings (base editing / homologous replacement of HPPD gene) on medium containing tembotrione; type: in vivo; details: medium containing 0.4 μM tembotrione
Procedure: The calli of Huaidao No. 5 (at least 3000 callis) were infected according to the aforesaid method for infecting rice callis with Agrobacterium. After being infected with Agrobacterium, the infected calli were transferred to a 50 mg/L hyg screening medium for screening culture. After three rounds (15 days×3) of screening, the blond calli with good growth state were picked out to differentiate in a differentiation medium, and 0.2 μM tembotrione was added during the differentiation process for screening. After for 3-4 weeks, about 1,500 seedlings with around 1 cm were obtained. As to the about 1,500 differentiated seedlings, the vast majority of which had been bleached, and only 4 seedlings remained normal green. The 4 seedlings were transplanted to a rooting medium containing 0.4 μM tembotrione and cultivated for 2 weeks, wherein two seedlings had been bleached, while the other two seedlings remained green (FIG. 14A). A small number of leaves were used to extract genomic DNA by CTAB method. PCR was carried out by using the primers oshppd54F: TTCCACCACGTCGAGCTC and Oshppd356R: […]. The amplified product was detected by 1% agarose electrophoresis and sequenced by Sanger sequencing method. […]

rice HPPD (OsHPPD) = test: Color reaction of recombinant E. coli expressing wild-type or mutant rice HPPD, cultured in 96-well plate in medium containing an HPPD-inhibiting herbicide and tyrosine; type: cell-based, Oryza sativa; details: tembotrione and metabolic product of benzuofucaotong, FIG. 1
From the text: The rice full-length OsHPPD enzyme has 446 amino acids and its amino acid sequence is set forth in SEQ ID NO: 2, wherein the amino acids 1-50 are considered to constitute a signal peptide which is responsible for directing into chloroplast (Siehl et al. Plant Physiol. 2014 November; 166(3): 1162-1176). Therefore, from the amino acid at the 51-position to the amino acid at the […], a saturated random mutation was made for each amino acid. This was achieved by performing a bridge PCR by using a primer containing a coding sequence of an amino acid to be mutated into NNK and another suitable conventional primer. In NNK, N represented A/T/G/C and K represented G/T, and the NNK codon could encode any one of 20 amino acids or terminators. Accordingly, this was a saturated mutation. Please see: Kille S. Acevedo-Rocha C G, Parra L P, Zhang Z G, Opperman D J, Reetz M T, Acevedo J P (2013) Reducing codon redundancy and screening effort of combinatorial protein libraries created by saturation mutagenesis. ACS Synth Biol 2(2):83-92; Directed Evolution Library Creation: methods and protocols 2nd ed. Edited by Elizabeth M. J. Gillam, Janine N. Copp and David F. Ackerley New York, NY United States: Springer, 2014. doi:10.1007/978-1-4939-1053-3. A large number of mutants would be produced. The mutant was cloned into a linearized pET-44a vector and transformed into E. co/i, which was cultivated by using a 96-well plate in a 2×YT culture solution containing an HPPD-inhibiting herbicide (such as 1-2 μM tembotrione) and a substrate tyrosine (1 g/L) in a shaker at 28° C. and 150 rpm for 24 hours for expression, and then the mutants were rapidly screened out according to their color browning. By using the method, 10 single amino acid mutants, A103S, H141R, H141 K, H141T, A165V, V191I, R220K, G342D, D370N and K410I, were screened out. The color reaction of these resistant mutants in the presence of tembotrione and the metabolic product of benzuofucaotong relative to that of the wild type was as shown in FIG. 1.
Similarly, the color reaction of these mutants in the presence of the other three HPPD-inhibiting herbicides huanbifucaotong, topramezone and mesotrione were determined, see FIGS. 2 and 3. The resistance/tolerance of each of the mutants to the five herbicides was roughly estimated on the basis of color changes thereof and the results were shown in Table 1. The more the plus sign “+”, the deeper the color and the higher the resistance/tolerance as compared to the wild type.
HPPD-inhibiting herbicides inhibited HPPD enzymatic activity. When tyrosine was converted to 4-hydroxyphenylpyruvate (HPP) under the action of tyrosine transaminase, the inactivated HPPD was unable to oxidize 4-hydroxyphenylpyruvate into homogentisic acid (HGA). HGA was dark brown. Therefore, if an HPPD mutant was resistant to or tolerant to an herbicide, after expressed in E. coli, the mutant could also oxidize 4-hydroxyphenylpyruvate into homogentisic acid, whereby dark brown appeared. Therefore, E. coli was cultured in a 2×YT culture medium containing a HPPD-inhibiting herbicide and a substrate tyrosine using a 96-well plate to express HPPD, and these mutants were rapidly screened according to their color changes. • (1) Preparation of 2×YT culture medium (1 g/L L-Tyr, 0.1 mM IPTG, 0.01 mM MnCl2 and 100 mg/L ampicillin were added). • (2) 0.1 mL of the above medium was added to each well of a 96-well plate, and the expression clones of OsHPPD wild type or mutant (OsHPPD Mut) from the E. coli plate obtained by the above transformation were subjected to liquid culture in the 96-well plate. HPPD inhibitors having a final concentration of 1 μM-20 μM were added according to different selected agents, for example, the final concentration of tembotrione was 1.7 μM while mesotrione was 10 μM. […]

B1: H141R: single-site mutant rice HPPD (protein, listed as Oryza sativa)
chain: MPPTPTPTATTGAVSAAAAAGENAGFRLVGHRRFVRANPRSDRFQALAFHHVELWCADAASAAGRFAFALGAPLAARSDLSTGNSAHASLLLRSASVAFLFTAPYGGDHGVGADAATTASIPSFSPGAARRFAADHGLAVRAVALRVADAADAFRASVAAGARPAFQPADLGGGFGLAEVELYGDVVLRFVSHPDGADAPFLPGFEGVSNPGAVDYGLRRFDHVVGNVPELAPVAAYISGFTGFHEFAEFTAEDVGTAESGLNSVVLANNAETVLLPLNEPVHGTKRRSQIQTYLDHHGGPGVQHIALASDDVLGTLREMRARSAMGGFEFLAPPPPNYYDGVRRRAGDVLSEEQINECQELGVLVDRDDQGVLLQIFTKPVGDRPTFFLEMIQRIGCMEKDESGQEYQKGGCGGFGKGNFSELFKSIEEYEKSLEAKQAPTVQGS
modifications: The amino acid sequence of Wild-Type rice HPPD protein (OsHPPD _WT)
state of successfully edited seedlings [1]: remain green
color change compared with wild type (rice HPPD (OsHPPD)): obviously deeper than that of the wild type
